From paper PMC10786891, “Massively parallel profiling of RNA-targeting CRISPR-Cas13d” come the findings set out here.

First the molecules themselves.
T1: EsCas13d, nuclease-dead (Eubacterium siraeum, UniProt B0MS50, R295A;H300A;R849A;H854A)
T1 sequence: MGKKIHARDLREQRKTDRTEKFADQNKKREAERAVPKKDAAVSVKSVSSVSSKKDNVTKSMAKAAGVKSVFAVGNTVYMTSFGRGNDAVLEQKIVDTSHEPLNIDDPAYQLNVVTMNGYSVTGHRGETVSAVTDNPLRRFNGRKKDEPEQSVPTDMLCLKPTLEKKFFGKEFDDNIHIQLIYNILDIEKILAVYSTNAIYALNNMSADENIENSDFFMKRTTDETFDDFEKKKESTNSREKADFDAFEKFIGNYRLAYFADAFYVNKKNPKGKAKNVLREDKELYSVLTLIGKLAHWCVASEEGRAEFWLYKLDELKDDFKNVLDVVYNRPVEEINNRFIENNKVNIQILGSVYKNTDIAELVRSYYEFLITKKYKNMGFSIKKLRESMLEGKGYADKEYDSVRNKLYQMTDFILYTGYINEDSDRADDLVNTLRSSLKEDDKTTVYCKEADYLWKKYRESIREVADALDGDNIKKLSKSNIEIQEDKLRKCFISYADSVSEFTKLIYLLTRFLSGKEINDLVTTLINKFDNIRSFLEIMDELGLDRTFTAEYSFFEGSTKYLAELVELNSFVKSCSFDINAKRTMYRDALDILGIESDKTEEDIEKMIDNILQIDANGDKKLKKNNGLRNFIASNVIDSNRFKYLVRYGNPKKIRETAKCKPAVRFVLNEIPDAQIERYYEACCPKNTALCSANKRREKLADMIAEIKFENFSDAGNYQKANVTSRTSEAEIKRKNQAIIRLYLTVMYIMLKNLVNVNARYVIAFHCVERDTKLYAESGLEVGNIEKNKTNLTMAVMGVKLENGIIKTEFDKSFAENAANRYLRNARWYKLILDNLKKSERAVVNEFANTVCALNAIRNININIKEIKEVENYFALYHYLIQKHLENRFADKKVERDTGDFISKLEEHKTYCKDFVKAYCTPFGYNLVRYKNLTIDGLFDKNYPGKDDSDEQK

B1: target 2 MT 5'PFS GCG 3'PFS AAA (mixed)
RNA 1: CACCCGUGCAAAAUUGCAGGGGUCUAAAACCUUCUCCAAAUUGUUUCAUCCU
RNA 2: GGGAAUGGAUCCACAUCUACGAAUUCGCGAGGAUGAAACAAUUUGGAGAAGAAAAGAUCGGAAGAGCACACGU
B2: target 2 MT 5'PFS GGU 3'PFS CCG (mixed)
RNA 1: B1 RNA 1
RNA 2: B1 RNA 2 with C28G, G29U, A52C, A53C, A54G
B3: target 2 MT 5'PFS AUU 3'PFS AUU (mixed)
RNA 1: B1 RNA 1
RNA 2: B1 RNA 2 with G27A, C28U, G29U, A53U, A54U
B4: target 2 MT 5'PFS GCG 3'PFS CUU (mixed)
RNA 1: B1 RNA 1
RNA 2: B1 RNA 2 with A52C, A53U, A54U
B5: target 2 MT 5'PFS GUC 3'PFS UCC (mixed)
RNA 1: B1 RNA 1
RNA 2: B1 RNA 2 with C28U, G29C, A52U, A53C, A54C
B6: target 2 MT 5'PFS CUC 3'PFS CAU (mixed)
RNA 1: B1 RNA 1
RNA 2: B1 RNA 2 with G27C, C28U, G29C, A52C, A54U
B7: target 2 MT 5'PFS UAC 3'PFS AUA (mixed)
RNA 1: B1 RNA 1
RNA 2: B1 RNA 2 with G27U, C28A, G29C, A53U
B8: target 2 MT 5'PFS UGG 3'PFS AAU (mixed)
RNA 1: B1 RNA 1
RNA 2: B1 RNA 2 with G27U, C28G, A54U
B9: target 2 MT 5'PFS GCG 3'PFS CUC (mixed)
RNA 1: B1 RNA 1
RNA 2: B1 RNA 2 with A52C, A53U, A54C
B10: target 2 MT 5'PFS UCA 3'PFS CCU (mixed)
RNA 1: B1 RNA 1
RNA 2: B1 RNA 2 with G27U, G29A, A52C, A53C, A54U
B11: target 2 MT 5'PFS UUA 3'PFS UAA (mixed)
RNA 1: B1 RNA 1
RNA 2: B1 RNA 2 with G27U, C28U, G29A, A52U
B12: target 2 MT 5'PFS CAG 3'PFS ACU (mixed)
RNA 1: B1 RNA 1
RNA 2: B1 RNA 2 with G27C, C28A, A53C, A54U
B13: target 2 MT 5'PFS UCA 3'PFS CCA (mixed)
RNA 1: B1 RNA 1
RNA 2: B1 RNA 2 with G27U, G29A, A52C, A53C
B14: target 2 MT 5'PFS UGG 3'PFS AAA (mixed)
RNA 1: B1 RNA 1
RNA 2: B1 RNA 2 with G27U, C28G
B15: target 2 MT 5'PFS GUC 3'PFS UCG (mixed)
RNA 1: B1 RNA 1
RNA 2: B1 RNA 2 with C28U, G29C, A52U, A53C, A54G
B16: target 2 MT 5'PFS UAC 3'PFS AUC (mixed)
RNA 1: B1 RNA 1
RNA 2: B1 RNA 2 with G27U, C28A, G29C, A53U, A54C
B17: target 2 MT 5'PFS CUU 3'PFS AUA (mixed)
RNA 1: B1 RNA 1
RNA 2: B1 RNA 2 with G27C, C28U, G29U, A53U
B18: target 2 MT 5'PFS UGU 3'PFS AUU (mixed)
RNA 1: B1 RNA 1
RNA 2: B1 RNA 2 with G27U, C28G, G29U, A53U, A54U
B19: target 2 MT 5'PFS CUC 3'PFS CAC (mixed)
RNA 1: B1 RNA 1
RNA 2: B1 RNA 2 with G27C, C28U, G29C, A52C, A54C
B20: target 2 MT 5'PFS GCC 3'PFS UGA (mixed)
RNA 1: B1 RNA 1
RNA 2: B1 RNA 2 with G29C, A52U, A53G
B21: target 2 MT 5'PFS GUC 3'PFS UCA (mixed)
RNA 1: B1 RNA 1
RNA 2: B1 RNA 2 with C28U, G29C, A52U, A53C
B22: target 2 MT 5'PFS GCC 3'PFS UGC (mixed)
RNA 1: B1 RNA 1
RNA 2: B1 RNA 2 with G29C, A52U, A53G, A54C
B23: target 2 MT 5'PFS GGU 3'PFS CCA (mixed)
RNA 1: B1 RNA 1
RNA 2: B1 RNA 2 with C28G, G29U, A52C, A53C
B24: target 2 MT 5'PFS CUC 3'PFS CAG (mixed)
RNA 1: B1 RNA 1
RNA 2: B1 RNA 2 with G27C, C28U, G29C, A52C, A54G
B25: target 2 MT 5'PFS GUC 3'PFS UCU (mixed)
RNA 1: B1 RNA 1
RNA 2: B1 RNA 2 with C28U, G29C, A52U, A53C, A54U
B26: target 2 MT 5'PFS CUC 3'PFS CAA (mixed)
RNA 1: B1 RNA 1
RNA 2: B1 RNA 2 with G27C, C28U, G29C, A52C
B27: target 2 MT 5'PFS AAG 3'PFS AAA (mixed)
RNA 1: B1 RNA 1
RNA 2: B1 RNA 2 with G27A, C28A
B28: target 2 MT 5'PFS UAU 3'PFS UAU (mixed)
RNA 1: B1 RNA 1
RNA 2: B1 RNA 2 with G27U, C28A, G29U, A52U, A54U
B29: target 2 MT 5'PFS UCA 3'PFS CCG (mixed)
RNA 1: B1 RNA 1
RNA 2: B1 RNA 2 with G27U, G29A, A52C, A53C, A54G
B30: target 1 U11A,G17U (mixed)
RNA 1: CACCCGUGCAAAAAUGCAGGGGUCUAAAACUGAGCGGAUAACCUCUCUAUGG
RNA 2: GGGAAUGGAUCCACAUCUACGAAUUCGUACCAUAUAGAGGAUAUCCGCUCACCGAGAUCGGAAGAGCACACGU
B31: target 1 insU 3' of 17,insG 3' of 2 (mixed)
RNA 1: B30 RNA 1
RNA 2: GGGAAUGGAUCCACAUCUACGAAUUCGUACCAUAGUAGAGGUUAUCCGCUCGACCGAGAUCGGAAGAGCACACGU

Changes are numbered by the printed parent chain. In names and notes the source's numbering stands.

For the series, the target named is T1, EsCas13d, nuclease-dead. The series can be described thus: crRNA (strand 1, pre-loaded); Mg2+; 40 mM Tris-HCl pH 7.5, 150 mM NaCl, 6 mM MgCl2, 1 mM DTT, 0.1% Tween-20, 0.2 mg/ml BSA; 25 C; 10 min per concentration, then washed. The following applies: tags: His6-TwinStrep-SUMO cleaved; N-terminal SNAP kept (SNAP-Surface 488); label: 3' end held by stalled T7 RNA polymerase.
B1: the dissociation constant (Kd) turned out to be 9.9 ± 2.3 nM.

B2: the Kd worked out at 17.4 ± 1.8 nM.

B3 gave a Kd of 5.5 ± 0.4 nM.

B4 yielded a Kd of 24 ± 6 nM.

On to B5, for which the affinity, expressed as Kd, was 42 ± 6 nM.

In turn, B6 yielded a Kd of 1.82 ± 0.19 nM.

The molecule B7 came in with a Kd of 4.9 ± 0.7 nM.

B8 had a Kd of 5.9 ± 0.7 nM.

For the molecule B9, the Kd was 21 ± 4 nM.

Regarding B10, the dissociation constant Kd is about 30 nM.

Regarding B11, the Kd was 17 ± 4 nM.

The molecule B12 returned a dissociation constant (Kd) of 6.2 ± 2.2 nM.

For the molecule B13, binding was put at a Kd of 10 ± 4 nM.

Turning to B14, binding was characterised by a dissociation constant (Kd) of 3.3 ± 0.4 nM.

In turn, B15 registered a Kd of 28 ± 6 nM.

In turn, B16 returned a Kd of 7 ± 1.7 nM.

As to B17, binding was put at a Kd of 4.7 ± 0.7 nM.

Regarding B18, the Kd came out at 11.9 ± 1.7 nM.

The molecule B19 gave a Kd of 3.9 ± 0.9 nM.

On to B20, for which the Kd came to 17 ± 5 nM.

For the molecule B21, the Kd was 17 ± 5 nM.

As to B22, the Kd was found to be 10.9 ± 1.7 nM.

In the case of B23, the Kd was determined as 24 ± 5 nM.

B24: the Kd is 1.93 ± 0.21 nM.

As for B25, the Kd is 25.4 ± 3.3 nM.

Regarding B26, the Kd came to 1.72 ± 0.2 nM.

In the case of B27, the dissociation constant Kd worked out at 3.7 ± 0.7 nM.

The molecule B28 showed a Kd of 35 ± 8 nM.

B29 showed a Kd of 5 ± 0.9 nM.

B30 gave a Kd of 84 ± 29 nM.

As to B31, binding was characterised by a dissociation constant (Kd) of 19.8 ± 2.5 nM.

Broadly, the Kd is the equilibrium constant for the complex coming apart. Read a high Kd as a looser complex.
